Test [1] has as its target T1, T129C Xyn-XMod-Doc protein (R. flavefaciens XMod-Doc from the CttA scaffoldin fused to the XynT6 xylanase … (Ruminococcus flavefaciens strain FD1, UniProt A0AEF5 565-803, engineered cysteine (T129C in the xylanase) coupled to a 5 kDa NHS-PEG-Mal linker on the cover glass or cantilever)).
T1 construct: X-module and dockerin (XMod-Doc) of the CttA scaffoldin of Ruminococcus flavefaciens strain FD1; The Xyn domain is a marker (fingerprint) and immobilisation domain and is written as a carrier under tags; Addgene 60865 holds the plasmid; also called XynT6-XDoc T129C; Xylanase-Xmodule-Dockerin; source: E. coli BL21, purified (Ni-NTA); not shown: XynT6 xylanase from Geobacillus stearothermophilus …
T1 sequence: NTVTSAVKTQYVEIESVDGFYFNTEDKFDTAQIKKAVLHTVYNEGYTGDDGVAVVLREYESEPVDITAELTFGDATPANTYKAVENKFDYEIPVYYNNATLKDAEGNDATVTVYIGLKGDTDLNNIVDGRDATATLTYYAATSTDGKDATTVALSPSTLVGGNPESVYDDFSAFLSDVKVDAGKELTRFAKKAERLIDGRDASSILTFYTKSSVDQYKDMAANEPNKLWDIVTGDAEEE
The test can be described thus: AFM single-molecule force spectroscopy; as a1, but final Doc:Coh rupture immediately following XMod unfolding (35–40% of traces); Bell-Evans fit. As to conditions: both partners purified.

Test [2] concerns the target T1, T129C Xyn-XMod-Doc protein (R. …). Description: AFM single-molecule force spectroscopy; both partners covalently immobilised through PEG linkers; configuration I: Coh-CBM on the cantilever, Xyn-XMod-Doc on the cover glass (configuration II the reverse); Ca-TBS (25 mM TRIS, 72 mM NaCl, 1 mM CaCl2, pH 7.2); pulling speeds 0.2 to 6.4 um/s; final complex rupture with intact XMod; Bell-Evans fit. The settings on record: both partners purified.

B1: Coh-CBM C2A, C63S fusion protein (R. flavefaciens CohE from ScaE fused to cellulose-binding module 3a (CBM3a) from C. thermocellum), with ybbR tag (domain or fragment, Ruminococcus flavefaciens strain FD1)
chain: ALTDRGMTYDLDPKDGSSAATKPVLEVTKKVFDTAADAAGQTVTVEFKVSGAEGKYATTGYHIYWDERLEVVATKTGAYAKKGAALEDSSLAKAENNGNGVFVASGADDDFGADGVMWTVELKVPADAKAGDVYPIDVAYQWDPSKGDLFTDNKDSAQGKLMQAYFFTQGIKSSSNPSTDEYLVKANATYADGYIAIKAGEP
modifications: ybbR tag covalently linked to Coenzyme A on PEG by Sfp phosphopantetheinyl transferase
notes: cohesin CohE of the ScaE scaffoldin of Ruminococcus flavefaciens strain FD1; The CBM is a marker (fingerprint) and immobilisation domain and is written as a carrier under tags; C2A reverts the earlier A2C in the CBM; also called CohE-CBM C2A C63S; Coh-CBM-ybbR; source: E. coli BL21(DE3) RIPL, purified (Ni-NTA); not shown: CBM3a from C. thermocellum with C2A and C63S, C-terminal, kept
As to B1, in test [1], the “koff of the rupture following XMod unfolding” value was 0.00047 s⁻¹ and the “rupture force following XMod unfolding” value was roughly 300 pN. Also, the koff in test [2] was 7.3e-07 s⁻¹.

The term koff denotes the rate constant with which the complex falls apart.

For the origin of these results see paper PMC4266597, “Ultrastable cellulosome-adhesion complex tightens under load” (Nature Communications, 2014).
